Measurements as given in article PMC2190711.

What was measured:
Experiment in all cases: CD
[1] = test system: hZαADAR1 (Homo sapiens)
[2] = test system: lsZαE3L (lumpy skin disease virus)
[3] = test system: spZαE3L (swinepox virus)

d(CG)n DNA for CD B-to-Z conversion
binding signal (% B-to-Z conversion) [1]: 100
binding signal (% B-to-Z conversion) [2]: 90
binding signal (% B-to-Z conversion) [3]: 65
